Data from the DeepSol protein solubility set.

Experiment: soluble on expression in E. coli; label from the status in PepcDB or PDB records

Sequence	soluble on expression in E. coli
MGSDKIHHHHHHMPYPKKVTIKEVGPRDGLQNEPVWIATEDKITWINQLSRTGLSYIEITSFVHPKWIPALRDAIDVAKGIDREKGVTYAALVPNQRGLENALEGGINEACVFMSASETHNRKNINKSTSESLHILKQVNNDAQKANLTTRAYLSTVFGCPYEKDVPIEQVIRLSEALFEFGISELSLGDTIGAANPAQVETVLEALLARFPANQIALHFHDTRGTALANMVTALQMGITVFDGSAGGLGGCPYAPGSSGNAATEDIVYMLEQMDIKTNVKLEKLLSAAKWIEEKMGKPLPSRNLQVFKSS	not soluble
VTEEEIHAMLEEGSVAGIIEQQEHEMVRNVFRLDDRQLGSLMVPRADIIYLDTALPLEENMKRVVESEHSRFPVCHNGLQSLLGVVNAKQLLAQTIKGGVTNLAEHLQPCVYVPETLTGMELLDHFRTSGTQMVFVVDEYGEIQGLVTLQDMLEAVTGEFA	not soluble
SFQGADSQAGKSGSRSMKPPGGESSDLFGSPEEGISSSKPNRMASNIFGPTEEPKNIPKRTNPPGGKGSGIFDESTPVQTRQRLNPPGGKTSDIFGSPVTATAPLAHPNKPKDHVLLCEGEDSKSDLKAATDSTPRGEQSDKGSSKEVEHAKIPEPTPTVDSHEPRLGPRPRSHNKVLNPPGGKSSLSFY	soluble
MAKGGKSPKGKKITLNVAKNCIKITFDGRKRLDLSKMGITTFPKCILRLNEIDELDLSRNMIRKIPDSISKFQNLRWLDLHSNYIDKLPESIGQMTSLLFLNVSNNRLTTNGLPVELNQLKNIRTVNLGLNHLDSVPTTLGALKELHEVGLHDNLLTSIPAGISKLPKLKKLNVKRNPFPKPDESDMFVDSIKRLENLYLVEEKDLCSSCLQKCQQARDKLNKIRSMAPSAPRKAIFSNLVSPNSTAKESQEEWSV	not soluble
MAHHHHHHMRSNGAAHIGNNTFLAVTRDVTDTAFLFSSSFSPAEQLVRLPLSRKTRFLPHASLACGEAERSEYAESAARAGPPTKDVDVKEAVASAAAASTPLFCHSAHASPDGHKIAFISNVRRHHYIIDISVLPAAVCELEMPEVVQSVCWHTVAHHALCVLFISGDLTIYDTDQSYLGVIVPLYRRIALRPVIERRLADAEAAVHPSPSIPSTAPGTISPAKGATALDKEEVQSTRVKALAGKVSTTRLPPARQAHATTAEVAGFRSLVLHSGGGAIVAGSDIAHSPSYAVAERIDHDEMVPVSSADEVGAEGAASCPPIPKPVMLPTSQLDLVDMYALPPTESIPVILLLSSSGDVYAVHLGDDCLPVVATAAATDDGRVRTREEEVLRRAEVAAAPLSVEVYHLISGDSTGAAGDEAVAVGGCLVDEDAGTHAVFFLTANGLVKGAWVSKPDLLARHRVAHVRAVGSPNISFTLHLSGSLGARASLAPAVPSITHSVSMTLSQNVCVVRSGVAGETAFVMAFPRWDRRRQGWACWRPACADAREREREAAALPLLSTDAAPPSPVALRLPYDTRDSSIAVGCTELLLVPEVSTMDGLCERGSILVISLAAVLRSALYARCGKLGLHPSAGAGATSRLRDPHPAVLDLLNAVPECHRCWLRGVPEAEMSAATLNLVRRIEQLSGDVNRREMVQAQRRRRLVARVANLEGRVAEMDGMLAEWRQIILDGIVHRRGGDAFRTANARLRKVSTMLNELEQQL	not soluble
HMSVILDTKGEPVSNAADAYYLVPVSHGEGGLALAKVGNEAEPKAVVLDPHHRPGLTVRFETPLAIAIITESFFLNIKFVPSSSDSEVWDVSKQYPIGLAVKVTDTKSFVGPFRVEKEGEGYKIVYYPDRGQTGLDIGLVHRNDKYYLAATEGEPFVFKIRKATYE	soluble
MASEASVRLGVPPGRLWIQRPGIYEDEEGRTWVTVVVRFNPSRREWARASQGSRYEPSITVHLWQMAVHTRELLSSGQMPFSQLPAVWQLYPRRKYRAADSSFWEIADHGQIDSMEQLVLTYQPERKD	not soluble
MSLKSVASGKELAGLRVMVIDDSKTIRRTAETLLKREGCEVVTAIDGFEALAKIADQKSQIIFVDIMMPRLDGYQTCALIKNNNLFKSTPVIMLSSKDGLFDKARGRVVGSEQYLTKPFTREELLSAIRTYVNPLKLAEGHHHHHH	not soluble
MGSDKIHHHHHHMTTRERIIETAITLFNEKGTKAVTTNHIAAAMEISPGNLYYHFRNKEEIIRAIFDQMDAVGFEDYEQIIAEHPAGSLAAMEETFLMIQRFNWRYRFFKRELTSLILSDPLLREKHLRVHQAMLRLVRHSIKSSIAQGVLRPMEEDELGLFAEEIWLLTLFWLNYLEVGGEDVTESTLRRGNELVRRTVCCRLTEEGARMLGRSGPAAP	not soluble
GPGSMPSPFQQTLLARAYHYVHPKTGRPIRQFRRYGDPRYINNEAALIRGQWGLITADFGMVTQSQMENARLAILRRLPRGSFTLTMHTDYEEFPVVKKSPESRMGAGKANIHHFAFKFTTGVPLFEIMPISARRLNQAEAEGIFLAGRPFIPLQTVVVPQGRVDEYHVFK	not soluble
MSDAFTDVAKMKKIKEDIRAHEGQLVELTLENGRKREKNKIGRLIEVYSSLFIIEYSDSSDTPGAIDNSYVESYTYSDILTEKTLIRYLD	not soluble
MELAQEARELGCWAVEEMGVPVAARAPESTLRRLCLGQGADIWAYILQHVHSQRTVKKIRGNLLWYGHQDSPQVRRKLELEAAVTRLRAEIQELDQSLELMERDTEAQDTAMEQARQHTQDTQRRALLLRAQAGAMRRQQHTLRDPMQRLQNQLRRLQDMERKAKVDVTFGSLTSAALGLEPVVLRDVRTACTLRAQFLQNLLLPQAKRGSLPTPHDDHFGTSYQQWLSSVETLLTNHPPGHVLAALEHLAAEREAEIRSLCSGDGLGDTEISRRAGGLWVCWSPSGAPS	soluble
MGSDKIHHHHHHLSQSTPDLLTKQLRYTDYLRANGIPFMKCVKPTDEALFTTIMDSIGQEWTCCLFHWIDGHHVTANTEQTAARMGQLARQLHDVSLHEQEIQFPFIDHTVTYQRWLGDLQRLSASRMPEPVQNSFQEYLTLAQQHLDTARLPKSSSLQPVISTDLNSLNVLWDSDQHIVGIVDHEHIGATDRVQDLAWLIKWYARTEGIDSHDVSGRLAKSLLTHYNSPTLLVPKEDPRLASLLWLSGCMNLHFVERTKQLAFDAENNPVGYDQFQLHLQTYRLRGERLVGLLT	not soluble
MGSDKIHHHHHHMINYMIPKGFLCCGKHVGIKKRKLDLGVVYSEKLCSAAAVFTKNKFCGIPIIVGKENIKDNKLQSIVVTSGVANVATGEEGLKNTYRILNKLSCELNIKSENILPSSTGIIGKQLPIDCIITGINGIKSSLSKYNWEEFNRAIMTTDKELKIKSCKIGDATVLGIAKGSGMIEPNMATMLAYFFTDASIKAVELKGILKRAVDKSFNMISIDHDTSTSDTAAILANGYVGNVNLEVFEKTFTDMCIDMAKDIVRDGEGVSKLIEATVMGCSSFESAKVIAKSIINSPLVKIAIYGSDPNWGRIAMAIGKSFEDDVDPLKIEIAFNSNVIYDKGKIYEENFDCIERYLRDNNECKIQANLNVGDFAATVWGSDFTEDYIRINSYYTKRK	not soluble
MSRSQLTILTNICLIEDLETQRVVMQYRAPENNRWSGYAFPGGHVENDEAFAESVIREIYEETGLTIQNPQLVGIKNWPLDTGGRYIVICYKATEFSGTLQSSEEGEVSWVQKDQIPNLNLAYDMLPLMEMMEAPDKSEFFYPRRTEDDWEKKIF	soluble
SMKFQARVLTLYPEMFPGFLGCSLAGQALKQGIWSLETVQIRDFALDKHHSVDDTPAGGGAGMVMRADVLAAALDSCPNDSPRLLMSPRGRLLNQAYARSLARSSGVTLVCGRFEGVDERIIEARELEEVSIGDYILSGGETAALVLLDAIVRLLPGVMGNEISAKCESFENGLLEHPQYTRPAVFEGRGIPPVLTSGHHKAIANWRQQQAESLTRQRRPDLYALYNKNRQKT	soluble
MYKFVLIASLLVALCMAAPPRQESEAERIEREEYEKYQNENAQYSFNSSVDDKINDGQISRNEEREGGTVRGSYSYFDGFVKRRVEYIADKDGYRVLKDEIEDVGNGPSFNPDGIANVEGSMIGKYSIKLDKADDDKHYKDIHALEHHHHHH	not soluble
MCVRLENENFKAELSESGAELTSLKSKNTDNEYIWTANSSYWGRHAPILFPIVGKVKDNKYRIADKVYNLSQHGFARDMEFEVEDNASDRAVFKLVWNDETLEKYPYKFELRVIYVLKDSTVDVTYNVKNVDDKDIFFSIGAHPGFNCPVIGKQSENDELQFEDYYIEFEKRETTGVVKLNSSNLLSRNTSPFLYASNILNLSEKLFKQGALILKDLDSTSISLKNDKNTTSVTVSFEGFPYVGLWSKPEGAPFVCIEPWFGHADYEDFNGDFREKEDGLKLEVGKEFECTYSITIGELEHHHHHH	soluble
SHMAIVKVTDADFDSKVESGVQLVDFWATACGPCKMIAPVLEELAADYEGKADILKLDVDENPSTAAKYEVMSIPTLIVFKDGQPVDKVVGFQPKENLAEVLDKHL	soluble
LDGIAELTGARVEDLAGMDVFQGCPAEGLVSLAASVQPLRAAAGQVLLRQGEPAVSFLLISSGSAEVSHVGDDGVAIIARALPGMIVGEIALLRDSPRSATVTTIEPLTGWTGGRGAFATMVHIPGVGERLLRTARQRLAAFVSPIPVRLADGTQLMLRPVLPGDRERTVHGHIQFSGETLYRRFMSARVPSPALMHYLSEVDYVDHFVWVVTDGSDPVADARFVRDETDPTVAEIAFTVADAYQGRGIGSFLIGALSVAARVDGVERFAARMLSDNVPMRTIMDRYGAVWQREDVGVITTMIDVPGPGELSLGREMVDQINRVARQVIEAVG	not soluble
MGSDKIHHHHHHMLGKGVVDYTREGSILSAEQRRFYEKNGYLLIRNCVPQYELNRFRQRFQDICEKKVKAPENMTVMKDISIAKSEFKDGEKAITKIQDFADDPVLFEYCKYPGVVDVVKDLIGNPKSNLMAMHTMLINKPPDNGKLTSRHPMHQDLQYFPFRPADFICCAWTAMEKITRANGCLVVVPGTHKGVLLPHEYPKWEGGVNKAYHGIQDYDTSTPRIHVEMEPGDTVFFHPILIHGSGANRTEGFRKAISCHYANDDLCRYVNVEGTTQETLAEEIIEIAKKRLTRYGLDPNTVTLDFADIWRVRAREVNGRRSNL	not soluble
MSLYQSIVFIARNVVNSITRILHDHPTNSSLITQTYFITPNHSGKNISFHLFHDFKYCSADTRHYSQLIIFPVKENSRPTQVSRPLGGRPHESVFLPKFTRTQNSYCLTRLDRMGFPPPRKASTIMHFFQDDRTVMCSPKDGIPVSSFHIMICFLERRKGN	soluble
GNIEAALFGLIALYAQTKVIDSIIYGGDAGSMATIVTGNPDGIAAKVIYELDRTATVLPAKGAYSRKDTSVLLCTVRKSQFVKLKRIVYEEDPDAFVMVTETSEVLGLGFRAFKDSL	not soluble
MTDVEQPVSVEDQQAQAQSYYDQVLGNAYVQTAINAYTKTKEFHPLLNSTLNSAEEKVSTVGNYAAQKAYDGYNSYYVKPKNTAYEAVSYGTERAKTAVESGKQAAIVGGTFGIGAAVVLTQFSLALSAGGAALVLEQVDSAKKLGSSAISTIKEAELAVEHRIFSALHQAQRIAMVPVEKITENTNSLLDILDGAVQKGLNIEVPPSVNLTIGQRVKNLASLIVQGVSNKAHDHVIDPINERARNYLEQLSQSFVLLDIVREKKTWVIEKSNELSTSVFDFKKTLEEEAQKYKVAPEEMLMKHIQSTSEQLSTQLQSLREKGQNVFGDGTKIDSTIDYLENLKKNFTDAEDVYKVRDEVLNEGRQRIAELSTWTTSLLIISAEWQFEPEDLLIEELYFDAPPPVRTRNLYRNRA	not soluble
MSYGLIIVLMIILGIGLWHTKKYHRAVVNQVAHVWITKNAFEHTALGMAIVSPDCRFLKVNRAYGEITGYTRPELLKMAVKELTHPEDQEKDTPYLQEVFAGNIHSFTTVKRYIHKNGSTIWVRSTISAVRTERGNLKYFVLEHHHHHH	not soluble
